Data: US20240124607A1 (Merck Sharp & Dohme, published 2024)
Changes are numbered by the printed parent chain.

T1: Human CEACAM8 (human, UniProt P31997 35-320, limits assumed)
T1 sequence (looked up): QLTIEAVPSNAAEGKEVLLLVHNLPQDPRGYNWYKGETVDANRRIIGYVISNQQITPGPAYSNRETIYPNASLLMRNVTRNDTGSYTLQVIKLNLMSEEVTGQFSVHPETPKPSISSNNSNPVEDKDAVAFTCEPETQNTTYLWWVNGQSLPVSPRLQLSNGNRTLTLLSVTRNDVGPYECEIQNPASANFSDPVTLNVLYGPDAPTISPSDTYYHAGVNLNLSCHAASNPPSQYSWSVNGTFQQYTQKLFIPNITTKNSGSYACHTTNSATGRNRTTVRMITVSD

T2: CEACAM5 A1-B1-Fc (human, UniProt P06731 145-322, limits assumed)
T2 construct: also called A1-B1 domain
T2 sequence: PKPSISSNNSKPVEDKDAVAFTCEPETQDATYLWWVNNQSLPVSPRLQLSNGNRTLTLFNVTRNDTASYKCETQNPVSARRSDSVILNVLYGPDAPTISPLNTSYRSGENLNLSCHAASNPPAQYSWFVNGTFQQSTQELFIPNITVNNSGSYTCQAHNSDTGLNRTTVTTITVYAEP

T3: human FcγRIIA R131 (human, UniProt P12318 34-218, limits assumed)
T3 sequence (looked up): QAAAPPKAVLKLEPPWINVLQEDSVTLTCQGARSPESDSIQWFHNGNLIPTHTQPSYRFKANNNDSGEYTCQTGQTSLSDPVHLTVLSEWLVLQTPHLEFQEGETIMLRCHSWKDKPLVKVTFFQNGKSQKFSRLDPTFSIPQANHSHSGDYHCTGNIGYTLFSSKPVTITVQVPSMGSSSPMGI

T4: human FcγRIIA H131 (human, UniProt P12318 34-218, limits assumed)
T4 sequence (looked up): T3 sequence (looked up) with R134H

T5: human FcγRIIB (human, UniProt P31994 43-217, limits assumed)
T5 sequence (looked up): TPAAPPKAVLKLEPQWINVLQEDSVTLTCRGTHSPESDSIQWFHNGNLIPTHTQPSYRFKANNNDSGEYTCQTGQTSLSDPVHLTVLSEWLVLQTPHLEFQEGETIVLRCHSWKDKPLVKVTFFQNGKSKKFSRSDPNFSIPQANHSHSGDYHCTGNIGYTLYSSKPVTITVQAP

B1: AB0621 F3' CEACAM5 TriNKET (bispecific antibody, human IgG1, kappa)
chain: DIVMTQSPDSLAVSLGERATINCKSSHSLLYGNFQNNYLAWYQQKPGQPPKLLIYWASTRESGVPDRFSGSGSGTDFTLTISSLQAEDVAVYYCQQYYSYPYTFGCGTKLEIKGGGGSGGGGSGGGGSGGGGSQVQLVQSGAEVKKPGASVKVSCKASGYTFTAYTIHWVRQAPGQCLEWMGYINPSSGYTEYNQKFKDRTTLTADTSISTAYMELSRLRSDDTAVYYCTREGGLLWFDYWGQGTLVTVSSGSDKTHTCPPCPAPELLGGPSVFLFPPKPKDTLMISRTPEVTCVVVDVSHEDPEVKFNWYVDGVEVHNAKTKPREEQYNSTYRVVSVLTVLHQDWLNGKEYKCKVSNKALPAPIEKTISKAKGQPREPRVYTLPPCRDELTKNQVSLTCLVKGFYPSDIAVEWESNGQPENNYKTTPPVLVSDGSFTLYSKLTVDKSRWQQGNVFSCSVMHEALHNHYTQKSLSLSPG
heavy: EVQLVESGGGLVKPGGSLRLSCAASGFTFSSYSMNWVRQAPGKGLEWVSSISSSSSYIYYADSVKGRFTISRDNAKNSLYLQMNSLRAEDTAVYYCARGAPIGAAAGWFDPWGQGTLVTVSSASTKGPSVFPLAPSSKSTSGGTAALGCLVKDYFPEPVTVSWNSGALTSGVHTFPAVLQSSGLYSLSSVVTVPSSSLGTQTYICNVNHKPSNTKVDKKVEPKSCDKTHTCPPCPAPELLGGPSVFLFPPKPKDTLMISRTPEVTCVVVDVSHEDPEVKFNWYVDGVEVHNAKTKPREEQYNSTYRVVSVLTVLHQDWLNGKEYKCKVSNKALPAPIEKTISKAKGQPREPQVCTLPPSRDELTENQVSLTCLVKGFYPSDIAVEWESNGQPENNYKTTPPVLDSDGSFFLYSWLTVDKSRWQQGNVFSCSVMHEALHNHYTQKSLSLSPG
light: DIQMTQSPSSVSASVGDRVTITCRASQGISSWLAWYQQKPGKAPKLLIYAASSLQSGVPSRFSGSGSGTDFTLTISSLQPEDFATYYCQQGVSFPRTFGGGTKVEIKRTVAAPSVFIFPPSDEQLKSGTASVVCLLNNFYPREAKVQWKVDNALQSGNSQESVTEQDSKDSTYSLSSTLTLSKADYEKHKVYACEVTHQGLSSPVTKSFNRGEC
B2: AB0264 F3' CEACAM5 TriNKET (bispecific antibody, human IgG1, kappa)
chain: B1 chain with S210P
heavy: B1 heavy
light: B1 light

Assays:
Human CEACAM8 = biological target: T1, Human CEACAM8; experiment: SPR, 37C, pH 7.4
CEACAM5 A1-B1-Fc = biological target: T2, CEACAM5 A1-B1-Fc; experiment: SPR, Fab capt, 25C
Description: If the protein domain was an Fc fusion, AB0411, AB0466, AB0264, or AB0621 were captured using an anti-human Fab antibody (Cytiva, #28958325) immobilized onto a CM5 chip. The various hCEACAM5 protein domains (N-term, A1-B1, A2, B2, A3, or B3) were titrated over the captured TriNKETs at 50 μL/min for 180 sec of association and 300 sec of dissociation. The assay was run at 25° C. in HBS-EP+ running buffer, pH 7.4. The surface of the CM5 chip was regenerated using […] glycine pH 2.1.

Human FcRn = Human FcRn (human, UniProt P55899 24-297; P61769 21-119, limits assumed); experiment: SPR, anti-kappa capture, 25C, pH 6.0; pH 6.0
Description: Anti-kappa light chain antibody was immobilized onto a CM5 chip following a standard amine-coupling protocol. AB0621 was captured onto the chip and human or cynomolgus FcRn was titrated from 2000 nM as 2-fold serial dilutions. Association was monitored for 120 sec and dissociation was monitored for 180 sec. Assays were run at 25° C. at both pH 7.4 and pH 6.0. The surface of the chip was regenerated with two pulses of 10 mM glycine pH 1.5 for 20 sec at 30 μL/min followed by 10 mM NaOH for 20 sec at 30 μL/min.

human FcγRIIA R131 = biological target: T3, human FcγRIIA R131; experiment: SPR, AB0621 on Protein A chip, 25C, pH 7.4
Description: (§1) AB0621 was captured onto a Protein A chip (Cytiva, #29127556). Human FcγRs were titrated over captured AB0621 as 3-fold serial dilutions starting from 300 nM for FcγRI, 1000 nM for FcγRIIA R131 and H131, and 3000 nM for FcγRIIB and FcγRIIIB. Association was monitored for 120 sec and dissociation was monitored for 180 sec. Assays were run at 25° C. at pH 7.4. The surface of the chip was regenerated with 10 mM glycine pH 1.5 for 20 sec at 30 μL/min.

human FcγRIIIB = human FcγRIIIB (human, UniProt O75015 17-200, limits assumed); experiment: SPR, AB0621 on Protein A chip, 25C, pH 7.4
Description: as §1

human FcγRIIA H131 = biological target: T4, human FcγRIIA H131; experiment: SPR, AB0621 on Protein A chip, 25C, pH 7.4
Description: as §1

human FcγRIIB = biological target: T5, human FcγRIIB; experiment: SPR, AB0621 on Protein A chip, 25C, pH 7.4
Description: as §1

human FcγRI = human FcγRI (human, UniProt P12314 16-288, limits assumed); experiment: SPR, AB0621 on Protein A chip, 25C, pH 7.4
Description: as §1

[1] = biological target: T6, cynomolgus CEACAM5 on Ba/F3 cells (cynomolgus monkey); experiment: flow cytometry on Ba/F3 cells expressing cynomolgus CEACAM5, fold over background (FOB), 5-fold dilutions from 1600 nM
T6 construct: whole, on cells
Description: To examine the binding specificity of the TriNKETs to CEACAM5 compared to other CEACAM family members, Ba/F3 cells were engineered to express one of human CEACAM1, CEACAM6, CEACAM8, or cynomolgus CEACAM5. CEACAM5 TriNKETs were evaluated by flow cytometry starting at 1600 nM followed by 7 5-fold dilutions.

[2] = biological target: T7, human CD16A (FcγRIIIA) V158 (human, UniProt P08637 17-208, limits assumed, biotinylated in the assay of Table 21); experiment: SPR (Biacore), AB0264 captured on a CM5 chip with immobilised human CEACAM5; 2 uM CD16A, then premix of 2 uM CD16A and 2 uM NKG2D-His
T7 construct: also called CD16A (V158/V176)
Text: This surface was used to first stably capture AB0264 onto the chip surface. […] The ratio of binding signals (which are proportional to MWs) was approximately 5:1:1 which is consistent with a 1:1:1 molar stoichiometry of complex bound on the CEACAM5 surface.

Chain of human FcγRI (P12314 16-288 limits assumed): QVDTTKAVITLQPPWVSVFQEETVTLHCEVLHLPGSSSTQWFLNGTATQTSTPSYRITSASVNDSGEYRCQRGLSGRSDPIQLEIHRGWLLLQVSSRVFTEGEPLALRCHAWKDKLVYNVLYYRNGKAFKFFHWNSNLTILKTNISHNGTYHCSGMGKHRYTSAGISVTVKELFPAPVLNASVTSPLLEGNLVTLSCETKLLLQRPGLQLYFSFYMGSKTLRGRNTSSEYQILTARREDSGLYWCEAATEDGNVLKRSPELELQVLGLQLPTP
Chain of Human FcRn (P55899 24-297 limits assumed, chain 1 of 2): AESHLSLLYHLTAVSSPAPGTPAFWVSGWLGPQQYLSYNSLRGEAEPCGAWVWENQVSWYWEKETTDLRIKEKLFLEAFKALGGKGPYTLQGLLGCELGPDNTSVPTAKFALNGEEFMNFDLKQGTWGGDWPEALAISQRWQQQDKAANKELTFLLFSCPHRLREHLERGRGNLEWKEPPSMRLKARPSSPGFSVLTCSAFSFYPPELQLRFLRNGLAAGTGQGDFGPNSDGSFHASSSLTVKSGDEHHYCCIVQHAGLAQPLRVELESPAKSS
Chain of Human FcRn (P61769 21-119 limits assumed, chain 2 of 2): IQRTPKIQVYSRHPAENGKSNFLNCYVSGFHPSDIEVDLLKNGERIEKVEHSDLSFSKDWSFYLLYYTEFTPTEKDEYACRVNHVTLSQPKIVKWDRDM
Chain of human FcγRIIIB (O75015 17-200 limits assumed): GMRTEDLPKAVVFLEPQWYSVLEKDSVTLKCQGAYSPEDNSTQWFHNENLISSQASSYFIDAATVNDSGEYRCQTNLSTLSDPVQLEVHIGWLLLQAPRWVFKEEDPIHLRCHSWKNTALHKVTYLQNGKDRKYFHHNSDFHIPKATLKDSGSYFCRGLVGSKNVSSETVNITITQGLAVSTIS
T7 sequence (P08637 17-208 F176V limits assumed): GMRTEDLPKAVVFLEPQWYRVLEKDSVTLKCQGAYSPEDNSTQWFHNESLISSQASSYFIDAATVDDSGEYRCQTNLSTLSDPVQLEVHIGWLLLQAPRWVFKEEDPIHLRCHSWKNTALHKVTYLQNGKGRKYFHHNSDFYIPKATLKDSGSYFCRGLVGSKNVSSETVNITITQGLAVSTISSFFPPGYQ

Row | Binder | binding result (Human CEACAM8) | Kd (CEACAM5 A1-B1-Fc) [µM] | kon (CEACAM5 A1-B1-Fc) [M⁻¹ s⁻¹] | Kd (Human FcRn) [µM] | Kd (human FcγRIIA R131) [µM] | binding result (human FcγRIIIB) | Kd (human FcγRIIA H131) [µM] | Kd (human FcγRIIB) [µM] | Kd (human FcγRI) [µM] | kon (human FcγRI) [M⁻¹ s⁻¹] | EC50 (read off the curve) [1] [µM] | binding result [2]
1 | B1 | no binding (tested: up to 600 and 1200 nM) | 0.0015 | 250000 | 0.44 | 0.33 | no binding (tested: titrated from 3000 nM) | 0.6 | 3.3 | 0.014 | 2.6e+06 | ~0.05 | –
2 | B2 | – | 0.001 | 260000 | – | – | – | – | – | – | – | ~0.04 | binds
